Laboratory results reported in the supplement of paper PMC11246515.
± gives the standard deviation of the averaged measurements.

Experiment: total protein half-life in vivo (active degradation + dilution); higher = more stable protein
[1] = E. coli NCM3722 delta-clpP delta-lon delta-hslV, growth: N-lim chemostat, doubling time 6 h
[2] = E. coli NCM3722 delta-hslV, growth: N-lim chemostat, doubling time 6 h
[3] = E. coli NCM3722 delta-lon, growth: N-lim chemostat, doubling time 6 h
[4] = E. coli NCM3722 delta-smpB, growth: N-lim chemostat, doubling time 6 h
[5] = wild type E. coli NCM3722, growth: C-lim chemostat, doubling time 3 h
[6] = wild type E. coli NCM3722, growth: C-lim chemostat, doubling time 6 h
[7] = wild type E. coli NCM3722, growth: C-lim chemostat, doubling time 12 h
[8] = wild type E. coli NCM3722, growth: N-lim chemostat, doubling time 6 h
[9] = wild type E. coli NCM3722, growth: N-lim chemostat, doubling time 12 h
[10] = wild type E. coli NCM3722, growth: P-lim chemostat, doubling time 6 h
[11] = wild type E. coli NCM3722, growth: P-lim chemostat, doubling time 12 h
[12] = E. coli NCM3722 delta-clpP, growth: N-lim chemostat, doubling time 6 h

Row | Substance | total protein half-life in vivo [1] | total protein half-life in vivo [2] | total protein half-life in vivo [3] | total protein half-life in vivo [4] | total protein half-life in vivo [5] | total protein half-life in vivo [6] | total protein half-life in vivo [7] | total protein half-life in vivo [8] | total protein half-life in vivo [9] | total protein half-life in vivo [10] | total protein half-life in vivo [11] | total protein half-life in vivo [12]
1 | MSKCSADETPVCCCMDVGTIMDNSDCTASYSRVFANRAEAEQTLAALTEKARSVESEPCKITPTFTEESDGVRLDIDFTFACEAEMLIFQLGLR [P0AD33] | 5.299 ± 0.023 h | 2.32 ± 0.13 h | 2.77 ± 0.89 h | 2.37 ± 0.099 h | 2.3 ± 0.11 h | 4.14 ± 0.23 h | 8.27 ± 4.1 h | 2.09 ± 0.35 h | 3.61 ± 0.46 h | 5.25 ± 0.11 h | 8.88 ± 0.45 h | –
2 | MSNLSPDFVLPENFCANPQEAWTIPARFYTDQNAFEHEKENVFAKSWICVAHSSELANANDYVTREIIGESIVLVRGRDKVLRAFYNVCPHRGHQLLSGEGKAKNVITCPYHAWAFKLDGNLAHARNCENVANFDSDKAQLVPVRLEEYAGFVFINMDPNATSVEDQLPGLGAKVLEACPEVHDLKLAARFTTRTPANWKNIVDNYLECYHCGPAHPGFSDSVQVDRYWHTMHGNWTLQYGFAKPSEQSFKFEEGTDAAFHGFWLWPCTMLNVTPIKGMMTVIYEFPVDSETTLQNYDIYFTNEELTDEQKSLIEWYRDVFRPEDLRLVESVQKGLKSRGYRGQGRIMADSSGSGISEHGIAHFHNLLAQVFKD [P0ABR7] | – | – | – | – | 0.182 h | – | – | – | – | – | – | –
3 | MIENRPWLTIFSHTMLILGIAVILFPLYVAFVAATLDKQAVYAAPMTLIPGTHLLENIHNIWVNGVGTNSAPFWRMLLNSFVMAFSITLGKITVSMLSAFAIVWFRFPLRNLFFWMIFITLMLPVEVRIFPTVEVIANLQMLDSYAGLTLPLMASATATFLFRQFFMTLPDELVEAARIDGASPMRFFCDIVFPLSKTNLAALFVITFIYGWNQYLWPLLIITDVDLGTTVAGIKGMIATGEGTTEWNSVMVAMLLTLIPPVVIVLVMQRAFVRGLVDSEK | – | – | – | – | – | – | 14.5 h | – | – | 6.34 h | 12.6 ± 2.1 h | –
4 | P77704 | 6.54 ± 0.9 h | 1.5 h | 2.26 h | 1.31 h | – | – | – | 1.53 ± 0.3 h | 2.2 h | – | – | –
5 | MKHDHFVVQSPDKPAQQLLLLFHGVGDNPVAMGEIGNWFAPLFPDALVVSVGGAEPSGNPAGRQWFSVQGITEDNRQARVDAIMPTFIETVRYWQKQSGVGANATALIGFSQGAIMVLESIKAEPGLASRVIAFNGRYASLPETASTATTIHLIHGGEDPVIDLAHAVAAQEALISAGGDVTLDIVEDLGHAIDNRSMQFALDHLRYTIPKHYFDEALSGGKPGDDDVIEMM | 4.732 ± 0.016 h | 2.76 ± 0.035 h | 3.46 ± 0.23 h | 2.67 ± 0.22 h | 3.16 ± 0.45 h | 6.03 ± 2.2 h | 5.97 ± 1.4 h | 2.93 ± 0.19 h | 3.93 ± 0.66 h | 4.46 ± 0.27 h | 6.94 ± 0.16 h | –
6 | MTHLELVPVPPVAQLAGVSQHYGKTVALNNITLDIPARCMVGLIGPDGVGKSSLLSLISGARVIEQGNVMVLGGDMRDPKHRRDVCPRIAWMPQGLGKNLYHTLSVYENVDFFARLFGHDKAEREVRINELLTSTGLAPFRDRPAGKLSGGMKQKLGLCCALIHDPELLILDEPTTGVDPLSRSQFWDLIDSIRQRQSNMSVLVATAYMEEAERFDWLVAMNAGEVLATGSAEELRQQTQSATLEEAFINLLPQAQRQAHQAVVIPPYQPENAEIAIEARDLTMRFGSFVAVDHVNFRIPRGEIFGFLGSNGCGKSTTMKMLTGLLPASEGEAWLFGQPVDPKDIDTRRRVGYMSQAFSLYNELTVRQNLELHARLFHIPEAEIPARVAEMSERFKLNDVEDILPESLPLGIRQRLSLAVAVIHRPEMLILDEPTSGVDPVARDMFWQLMVDLSRQDKVTIFISTHFMNEAERCDRISLMHAGKVLASGTPQELVEKRGAASLEEAFIAYLQEAAGQSNEAEAPPVVHDTTHAPRQGFSLRRLFSYSRREALELRRDPVRSTLALMGTVILMLIMGYGISMDVENLRFAVLDRDQTVSSQAWTLNLSGSRYFIEQPPLTSYDELDRRMRAGDITVAIEIPPNFGRDIARGTPVELGVWIDGAMPSRAETVKGYVQAMHQSWLQDVASRQSTPASQSGLMNIETRYRYNPDVKSLPAIVPAVIPLLLMMIPSMLSALSVVREKELGSIINLYVTPTTRSEFLLGKQLPYIALGMLNFFLLCGLSVFVFGVPHKGSFLTLTLAALLYIIIATGMGLLISTFMKSQIAAIFGTAIITLIPATQFSGMIDPVASLEGPGRWIGEVYPTSHFLTIARGTFSKALDLTDLWQLFIPLLIAIPLVMGLSILLLKKQEG | 6.26 ± 0.63 h | 5.89 ± 0.12 h | 6.1709 ± 0.0027 h | 5.63 ± 0.1 h | 3.42 ± 0.3 h | 5.34 h | 13.5 ± 0.33 h | 5.19 ± 0.17 h | 11.8 ± 0.13 h | 6.42 ± 0.41 h | 13 ± 1.4 h | 5.83 ± 0.27 h
7 | MKKRVYLIAAVVSGALAVSGCTTNPYTGEREAGKSAIGAGLGSLVGAGIGALSSSKKDRGKGALIGAAAGAALGGGVGYYMDVQEAKLRDKMRGTGVSVTRSGDNIILNMPNNVTFDSSSATLKPAGANTLTGVAMVLKEYPKTAVNVIGYTDSTGGHDLNMRLSQQRADSVASALITQGVDASRIRTQGLGPANPIASNSTAEGKAQNRRVEITLSPL | – | 6.78 ± 0.46 h | 6.16 ± 0.47 h | 5.3 ± 0.5 h | 2.78 ± 0.1 h | 5.45 ± 0.11 h | – | 5.81 ± 0.95 h | 12.6 h | 5.82 h | 11.4 ± 0.82 h | 5.47 h
8 | MIKRVLVVSMVGLSLVGCVNNDTLSGDVYTASEAKQVQNVSYGTIVNVRPVQIQGGDDSNVIGAIGGAVLGGFLGNTVGGGTGRSLATAAGAVAGGVAGQGVQSAMNKTQGVELEIRKDDGNTIMVVQKQGNTRFSPGQRVVLASNGSQVTVSPR [P0A905] | 5.26 ± 0.26 h | 6.11 ± 0.62 h | 6.23 ± 0.85 h | 6.1 ± 0.32 h | 2.899 ± 0.023 h | 5.41 ± 0.79 h | 9.39 ± 0.33 h | 5.49 ± 0.094 h | 11.5 ± 0.94 h | 5.87 ± 0.41 h | 11.5 ± 0.73 h | 5.83 ± 0.096 h
